Experimental findings from patent US20140322332A1 (GENUS ONCOLOGY, published 2014) are described below.

Assay [1] concerns the target T1, human MUC1 in human carcinoma cells (human, UniProt P15941 1097-1255).
T1 sequence: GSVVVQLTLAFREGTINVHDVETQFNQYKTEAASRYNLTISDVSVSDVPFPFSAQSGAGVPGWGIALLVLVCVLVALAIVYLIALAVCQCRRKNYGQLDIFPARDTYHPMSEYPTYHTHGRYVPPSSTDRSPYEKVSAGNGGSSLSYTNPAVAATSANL
Description: cell-based or functional assay.

Assay [2] addresses dopamine D1 receptor (Homo sapiens (Human)) (UniProt P21728). Description: receptor binding screen, inhibition of radioligand binding.
The target in assay [3] is human MUC1 in human carcinoma cells (human) (UniProt P15941). Kind of assay: cell-based or functional assay.

Positions of bridges follow the written chain, without caps; N, C: chain ends. Non-standard residues stand in square brackets, D forms with d.

Sequence of dopamine D1 receptor (Homo sapiens (Human)) (P21728 whole entry, form in doubt): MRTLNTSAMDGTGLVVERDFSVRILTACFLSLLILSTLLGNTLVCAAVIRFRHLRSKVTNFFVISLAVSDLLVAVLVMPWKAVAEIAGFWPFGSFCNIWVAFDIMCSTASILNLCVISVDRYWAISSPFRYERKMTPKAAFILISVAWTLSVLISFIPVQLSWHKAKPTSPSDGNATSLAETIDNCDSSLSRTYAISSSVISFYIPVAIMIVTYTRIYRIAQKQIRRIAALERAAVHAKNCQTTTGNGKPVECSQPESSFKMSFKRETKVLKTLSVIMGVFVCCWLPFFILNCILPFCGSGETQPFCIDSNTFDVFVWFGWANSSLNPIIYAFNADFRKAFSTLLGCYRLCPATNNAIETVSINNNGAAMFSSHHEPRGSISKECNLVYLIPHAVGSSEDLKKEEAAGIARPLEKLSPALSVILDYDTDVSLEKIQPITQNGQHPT

In assay [1], GO-203 (peptide) returned a % inhibition of proliferation, H1975 lung cancer cells, 5 µM peptide daily, viable cells by trypan blue of 75.8% and a % inhibition of proliferation, ZR-75-1 breast cancer cells, 5 µM peptide daily, viable cells by trypan blue of 44%.

B1: GO-203-2c (peptide)
peptide: Ac-[dR][dR][dR][dR][dR][dR][dR][dR][dR][dC][dQ][dC][dR][dR][dK][dN]-NH2
modifications: disulfide 10-12
SMILES: CC(=O)N[C@H](CCCNC(=N)N)C(=O)N[C@H](CCCNC(=N)N)C(=O)N[C@H](CCCNC(=N)N)C(=O)N[C@H](CCCNC(=N)N)C(=O)N[C@H](CCCNC(=N)N)C(=O)N[C@H](CCCNC(=N)N)C(=O)N[C@H](CCCNC(=N)N)C(=O)N[C@H](CCCNC(=N)N)C(=O)N[C@H](CCCNC(=N)N)C(=O)N[C@@H]1CSSC[C@H](C(=O)N[C@H](CCCNC(=N)N)C(=O)N[C@H](CCCNC(=N)N)C(=O)N[C@H](CCCCN)C(=O)N[C@H](CC(N)=O)C(N)=O)NC(=O)[C@@H](CCC(N)=O)NC1=O
Consider B1, for which the “IC50 of inhibition of proliferation of a variety of human carcinoma cell lines in vitro” value in assay [1] was 2 to 5 µM. The IC50 in assay [2] was 10.5 µM.

B2: GO-203-2 (peptide)
peptide: Ac-[dR][dR][dR][dR][dR][dR][dR][dR][dR][dC][dQ][dC][dR][dR][dK][dN]-NH2
modifications: cysteine pairing not given here
B2: in assay [3], the % Inhibition of cell viability, A549 NSCLC, 5 µM amounted to 75.4%; the % Inhibition of cell viability, H1975 NSCLC, 5 µM stood at 52.9%; the % Inhibition of cell viability, MCF-7 breast carcinoma, 5 µM amounted to 91.4%; the % Inhibition of cell viability, ZR-75-1 breast carcinoma, 5 µM came to 50.7%. Besides, in assay [3], the % inhibition of proliferation, H1975 lung cancer cells, 5 µM peptide daily, viable cells by trypan blue stood at 63.6%; the % inhibition of proliferation, ZR-75-1 breast cancer cells, 5 µM peptide daily, viable cells by trypan blue came to 65.5%; the IC50 of inhibition of proliferation of a variety of human carcinoma cell lines in vitro is 2 to 5 µM.

In general, IC50 refers to the concentration that gives 50% inhibition. A high value points to lower potency.
